Source: IntAct's records for PubMed 15150238

B1: DnaA regulatory inactivator Hda (Escherichia coli (strain K12)), P69931 (parent)
chain: MNTPAQLSLPLYLPDDETFASFWPGDNSSLLAALQNVLRQEHSGYIYLWAREGAGRSHLLHAACAELSQRGDAVGYVPLDKRTWFVPEVLDGMEHLSLVCIDNIECIAGDELWEMAIFDLYNRILESGKTRLLITGDRPPRQLNLGLPDLASRLDWGQIYKLQPLSDEDKLQALQLRARLRGFELPEDVGRFLLKRLDREMRTLFMTLDQLDRASITAQRKLTIPFVKEILKL

What was measured:
dpo3b_ecoli dnaN, P0A988 [1] = variants of: B1; settings: with dpo3b_ecoli dnaN
dpo3b_ecoli dnaN, P0A988 [2] = variants of: B1; settings: with dpo3b_ecoli dnaN; remark: listed apart in the source

Sequence of dpo3b_ecoli dnaN, P0A988 (P0A988 whole entry): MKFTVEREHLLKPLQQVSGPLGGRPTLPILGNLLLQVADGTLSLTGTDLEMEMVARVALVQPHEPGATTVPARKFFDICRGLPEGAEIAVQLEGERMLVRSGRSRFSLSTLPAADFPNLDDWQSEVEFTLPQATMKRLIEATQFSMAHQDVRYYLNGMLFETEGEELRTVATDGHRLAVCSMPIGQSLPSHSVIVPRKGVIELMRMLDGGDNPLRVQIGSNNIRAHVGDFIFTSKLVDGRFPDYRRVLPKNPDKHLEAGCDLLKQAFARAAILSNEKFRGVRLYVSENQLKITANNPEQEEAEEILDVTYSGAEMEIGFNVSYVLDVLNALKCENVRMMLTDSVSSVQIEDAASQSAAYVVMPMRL

| effect of a mutation on the interaction (dpo3b_ecoli dnaN, P0A988 [1]) | effect of a mutation on the interaction (dpo3b_ecoli dnaN, P0A988 [2]) | Variant |
| --- | --- | --- |
| decreasing interaction | disrupting interaction | MNTPAQASAPLYLPDDETFASFWPGDNSSLLAALQNVLRQEHSGYIYLWAREGAGRSHLLHAACAELSQRGDAVGYVPLDKRTWFVPEVLDGMEHLSLVCIDNIECIAGDELWEMAIFDLYNRILESGKTRLLITGDRPPRQLNLGLPDLASRLDWGQIYKLQPLSDEDKLQALQLRARLRGFELPEDVGRFLLKRLDREMRTLFMTLDQLDRASITAQRKLTIPFVKEILKL [L7A;L9A] |
| decreasing interaction | disrupting interaction | MNTPAQLSAALYLPDDETFASFWPGDNSSLLAALQNVLRQEHSGYIYLWAREGAGRSHLLHAACAELSQRGDAVGYVPLDKRTWFVPEVLDGMEHLSLVCIDNIECIAGDELWEMAIFDLYNRILESGKTRLLITGDRPPRQLNLGLPDLASRLDWGQIYKLQPLSDEDKLQALQLRARLRGFELPEDVGRFLLKRLDREMRTLFMTLDQLDRASITAQRKLTIPFVKEILKL [L9A;P10A] |
